Data reported in publication doi:10.1101/2023.12.10.570962 (bioRxiv, 2023).

Biological target: Legionella collagen-like protein (Lcl) from L. pneumophila strain 130b, intact, residues 1-401 (Legionella pneumophila strain 130b)
Assay: SEC-MALS

Legionella collagen-like protein (Lcl) from L. pneumophila strain 130b, intact, residues 1-401 (natural protein)
stoichiometry N: 3
